The term Kd denotes the free concentration of one partner at which half of the binding sites on the other are occupied at equilibrium, for simple one-to-one binding.

Results on 7 compounds are retold here after article PMC4081096, “GtrS and GltR form a two-component system: the central role of 2-ketogluconate in the expression of exotoxin A and glucose catabolic enzymes in Pseudomonas aeruginosa” (Nucleic Acids Research, 2014).

The target of series [1] is T1, GtrS (Pseudomonas aeruginosa, UniProt Q9HZ47). The experiment in a line: isothermal titration calorimetry with purified recombinant GtrS-LBD. The class given is binding. A general note: ITC needs no label: the signal is the heat of the interaction.
T1 sequence (Q9HZ47 30-197): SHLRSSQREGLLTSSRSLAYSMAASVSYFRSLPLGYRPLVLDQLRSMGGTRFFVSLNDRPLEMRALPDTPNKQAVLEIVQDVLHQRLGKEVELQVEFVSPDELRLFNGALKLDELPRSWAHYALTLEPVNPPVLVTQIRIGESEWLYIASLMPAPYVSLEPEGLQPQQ
Series [2] concerns GltR (Pseudomonas aeruginosa PAO1). The experiment in a line: EMSA. The settings on record: EMSA: 2 nM 32P-DNA, 50 mM Tris-HCl pH 7.5, 10 mM NaCl, 0.5 M Mg acetate (so in the source), 0.1 mM EDTA, 1 mM DTT, 5% glycerol, 20 ug/ml poly(dI-dC), 200 ug/ml BSA …. For orientation: In EMSA bound probe runs differently from free probe, usually more slowly.
Series [3] deals with T2, GltR (Pseudomonas aeruginosa PAO1) (UniProt G3XCY6).
T2 sequence: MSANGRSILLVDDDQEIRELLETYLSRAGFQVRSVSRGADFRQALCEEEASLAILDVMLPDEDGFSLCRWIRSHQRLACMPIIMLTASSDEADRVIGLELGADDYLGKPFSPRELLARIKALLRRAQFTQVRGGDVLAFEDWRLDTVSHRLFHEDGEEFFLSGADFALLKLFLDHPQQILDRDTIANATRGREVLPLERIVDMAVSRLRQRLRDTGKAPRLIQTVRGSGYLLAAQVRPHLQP
The experiment in a line: EMSA. To be noted: EMSA: 2 nM 32P-DNA, 50 mM Tris-HCl pH 7.5, 10 mM NaCl, 0.5 M Mg acetate (so in the source), 0.1 mM EDTA, 1 mM DTT, 5% glycerol, 20 ug/ml poly(dI-dC), 200 ug/ml BSA ….

In series [4] the target is T1, GtrS. The experiment in a line: isothermal titration calorimetry with purified recombinant GtrS-LBD; 2-KG also accelerates autophosphorylation of full-length GtrS in membranes. The class given is binding.

With `O=C(O)[C@H](O)[C@@H](O)[C@H](O)[C@H](O)COP(=O)(O)O` [6PG, 6-phosphogluconate], the Kd on GtrS [1] amounted to 98 ± 33 µM.
Take PoprB promoter fragment: in series [2], the K half was 1000 nM.
On the same count and under the same terms, then PtoxA promoter fragment, with 1000 nM.
“AGATCTTGCAGCTTTACCGAGAGCCTCAACGGCTGGCGCTGATTCTGATAGGTCGATATCCGCCGGCGCTTGGCTGGCGGCTGTCTCTCCGGCAACATCTGCCGACCGTCCCGCCCTGGCGCGGGGCATTGCGGTTCAACGACGATGAATAACGACAACAAGAGAAGCGCCGGCGGCCTCGGCCTGGTCGGCGATATCGCTGCAG (double strand) [Pglk promoter fragment]” displayed a K half in series [3] of 1000 nM.
Pedd/gap-1 promoter fragment yielded a K half in series [2] of 1000 nM.
As for `O=C(O)C(=O)[C@@H](O)[C@H](O)[C@H](O)CO` [2-KG, 2-ketogluconate], on GtrS [4], the Kd came to 4.95 ± 0.8 µM.
For Pglk promoter fragment, the K half in series [2] is 1000 nM.
